Where two headings read alike, the source gives them in different places.
Columns and labels:
Assay in all cases: two-hybrid library CCmax;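 note: natural log of median RNA to DNA barcode read ratio; higher means stronger binding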
4H3381-AA = target: T1, 4H3381-AA; settings: mean of both orientations
T1 chain: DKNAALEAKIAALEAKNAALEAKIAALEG

4H485-AA = target: T2, 4H485-AA; settings: mean of both orientations
T2 chain: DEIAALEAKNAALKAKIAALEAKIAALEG

4H570-AA = target: T3, 4H570-AA; settings: mean of both orientations
T3 chain: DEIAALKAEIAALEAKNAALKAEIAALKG

4H797-AA = target: T4, 4H797-AA; settings: mean of both orientations
T4 chain: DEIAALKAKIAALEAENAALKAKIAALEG

4H3016-AA = target: T5, 4H3016-AA; settings: mean of both orientations
T5 chain: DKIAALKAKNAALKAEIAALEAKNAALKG

4H745-AA = target: T6, 4H745-AA; settings: mean of both orientations
T6 chain: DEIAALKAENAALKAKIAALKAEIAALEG

4H94-AA = target: T7, 4H94-AA; settings: mean of both orientations
T7 chain: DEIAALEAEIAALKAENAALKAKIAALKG

4H930-AA = target: T8, 4H930-AA; settings: mean of both orientations
T8 chain: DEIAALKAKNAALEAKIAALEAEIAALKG

4H3395-AA = target: T9, 4H3395-AA; settings: mean of both orientations
T9 chain: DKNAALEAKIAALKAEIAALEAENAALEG

4H3697-AA = target: T10, 4H3697-AA
T10 chain: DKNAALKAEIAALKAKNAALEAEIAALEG

4H891-AA = target: T11, 4H891-AA; settings: mean of both orientations
T11 chain: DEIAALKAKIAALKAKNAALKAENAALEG

4H3410-AA = target: T12, 4H3410-AA; settings: mean of both orientations
T12 chain: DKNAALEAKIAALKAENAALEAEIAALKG

4H3165-AA = target: T13, 4H3165-AA; settings: mean of both orientations
T13 chain: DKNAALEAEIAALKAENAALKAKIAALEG

4H458-AA = target: T14, 4H458-AA; settings: mean of both orientations
T14 chain: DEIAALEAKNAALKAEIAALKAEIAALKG

4H3120-AA = target: T15, 4H3120-AA; settings: mean of both orientations
T15 chain: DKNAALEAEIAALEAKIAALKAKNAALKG

4H3753-AA = target: T16, 4H3753-AA; settings: mean of both orientations
T16 chain: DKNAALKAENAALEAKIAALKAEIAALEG

4H710-AA = target: T17, 4H710-AA; settings: mean of both orientations
T17 chain: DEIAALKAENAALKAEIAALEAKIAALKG

4H3130-AA = target: T18, 4H3130-AA; settings: mean of both orientations
T18 chain: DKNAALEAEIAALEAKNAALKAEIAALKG

4H629-AA = target: T19, 4H629-AA; settings: mean of both orientations
T19 chain: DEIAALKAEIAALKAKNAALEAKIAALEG

4H3590-AA = target: T20, 4H3590-AA; settings: mean of both orientations
T20 chain: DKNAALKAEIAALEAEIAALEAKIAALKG

4H850-AA = target: T21, 4H850-AA; settings: mean of both orientations
T21 chain: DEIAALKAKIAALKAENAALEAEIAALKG

4H909-AA = target: T22, 4H909-AA; settings: mean of both orientations
T22 chain: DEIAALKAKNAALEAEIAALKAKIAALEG

4H3865-AA = target: T23, 4H3865-AA; settings: mean of both orientations
T23 chain: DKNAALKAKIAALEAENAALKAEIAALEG

4H310-AA = target: T24, 4H310-AA; settings: mean of both orientations
T24 chain: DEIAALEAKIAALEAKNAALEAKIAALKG

4H2865-AA = target: T25, 4H2865-AA
T25 chain: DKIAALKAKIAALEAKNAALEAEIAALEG

4H536-AA = target: T26, 4H536-AA; settings: mean of both orientations
T26 chain: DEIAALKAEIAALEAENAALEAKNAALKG

4H3009-AA = target: T27, 4H3009-AA; settings: mean of both orientations
T27 chain: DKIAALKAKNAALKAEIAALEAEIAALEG

APC9096-AA = target: T28, APC9096-AA; settings: mean of both orientations
T28 chain: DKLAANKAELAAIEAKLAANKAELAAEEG

APC8910-AA = target: T29, APC8910-AA
T29 chain: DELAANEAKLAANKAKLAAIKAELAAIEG

APC9319-AA = target: T30, APC9319-AA; settings: mean of both orientations
T30 chain: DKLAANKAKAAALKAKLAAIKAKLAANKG

APC8191-AA = target: T31, APC8191-AA
T31 chain: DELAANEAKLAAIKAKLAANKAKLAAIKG

4H2725-AA = target: T32, 4H2725-AA
T32 chain: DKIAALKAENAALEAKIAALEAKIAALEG

4H446-AA = target: T33, 4H446-AA; settings: mean of both orientations
T33 chain: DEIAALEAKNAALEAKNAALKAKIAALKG

4H3915-AA = target: T34, 4H3915-AA; settings: mean of both orientations
T34 chain: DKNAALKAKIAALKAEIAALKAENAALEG

4H3777-AA = target: T35, 4H3777-AA; settings: mean of both orientations
T35 chain: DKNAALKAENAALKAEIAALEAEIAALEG

4H3629-AA = target: T36, 4H3629-AA; settings: mean of both orientations
T36 chain: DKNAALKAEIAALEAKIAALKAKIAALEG

4H432-AA = target: T37, 4H432-AA; settings: mean of both orientations
T37 chain: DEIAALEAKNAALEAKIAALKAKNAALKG

4H3974-AA = target: T38, 4H3974-AA; settings: mean of both orientations
T38 chain: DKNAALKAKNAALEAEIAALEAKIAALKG

4H63-AA = target: T39, 4H63-AA; settings: mean of both orientations
T39 chain: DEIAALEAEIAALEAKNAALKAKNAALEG

4H3619-AA = target: T40, 4H3619-AA
T40 chain: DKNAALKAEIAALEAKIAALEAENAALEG

4H380-AA = target: T41, 4H380-AA; settings: mean of both orientations
T41 chain: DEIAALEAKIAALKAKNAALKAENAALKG

Binder: DKIAALKAKIAALEAKNAALEAEIAALEG [4H2865-AA]
- interaction score (4H3381-AA): -0.233
- interaction score (4H485-AA): -1.28
- interaction score (4H570-AA): 1.01
- interaction score (4H797-AA): -0.194
- interaction score (4H3016-AA): -1.4
- interaction score (4H745-AA): 0.436
- interaction score (4H94-AA): 1.39
- interaction score (4H930-AA): -1.5
- interaction score (4H3395-AA): -1.43
- interaction score (4H3697-AA; mean of both orientations): -1.95
- interaction score (4H891-AA): -1.8
- interaction score (4H3410-AA): -0.858
- interaction score (4H3165-AA): -1.47
- interaction score (4H458-AA): -0.6
- interaction score (4H3120-AA): -0.983
- interaction score (4H3753-AA): -0.663
- interaction score (4H710-AA): -0.988
- interaction score (4H3130-AA): -0.487
- interaction score (4H629-AA): -0.872
- interaction score (4H3590-AA): -0.177
- interaction score (4H850-AA): 0.586
- interaction score (4H909-AA): -0.808
- interaction score (4H3865-AA): -1.3
- interaction score (4H310-AA): 1.7
- interaction score (4H2865-AA): 0.121
- interaction score (4H536-AA): 1.01
- interaction score (4H3009-AA): 2.01

Binder: DELAANEAKLAAIKAKLAANKAKLAAIKG [APC8191-AA]
- interaction score (APC9096-AA): -1.76
- interaction score (APC8910-AA): -1.9
- interaction score (APC9319-AA): -1.88
- interaction score (APC8191-AA): -1.48

Binder: DKIAALKAENAALEAKIAALEAKIAALEG [4H2725-AA]
- interaction score (4H3381-AA): -1.94
- interaction score (4H485-AA): 1.94
- interaction score (4H570-AA): -0.95
- interaction score (4H797-AA): -1.21
- interaction score (4H3016-AA): -0.188
- interaction score (4H745-AA): 1.36
- interaction score (4H94-AA): -0.91
- interaction score (4H930-AA): 0.224
- interaction score (4H3395-AA): -1.64
- interaction score (4H3697-AA): 1.2
- interaction score (4H891-AA): -1.64
- interaction score (4H3410-AA): -1.72
- interaction score (4H3165-AA): -0.466
- interaction score (4H458-AA): 0.908
- interaction score (4H3120-AA): -1.56
- interaction score (4H3753-AA): -1.26
- interaction score (4H710-AA): 0.748
- interaction score (4H2725-AA): 1.47
- interaction score (4H3130-AA): -0.815
- interaction score (4H629-AA): -0.516
- interaction score (4H3590-AA): -0.62
- interaction score (4H850-AA): -0.653
- interaction score (4H909-AA): -0.311
- interaction score (4H3865-AA): -1.16
- interaction score (4H310-AA): -1.1
- interaction score (4H2865-AA; mean of both orientations): -1.08
- interaction score (4H536-AA): -1.71
- interaction score (4H3009-AA): 1.76

Binder: DKNAALKAEIAALEAKIAALEAENAALEG [4H3619-AA]
- interaction score (4H446-AA): -1.21
- interaction score (4H3915-AA): -0.429
- interaction score (4H3777-AA): -1.36
- interaction score (4H3629-AA): 0.411
- interaction score (4H432-AA): -0.708
- interaction score (4H3974-AA): -0.337
- interaction score (4H63-AA): -0.357
- interaction score (4H3619-AA): -1.28
- interaction score (4H380-AA): -0.137

Reference: publication PMC10397247
